Biological target: GNL3, endogenous (UniProt Q9BVP2)
Assay: PLA (α-Flag + α-GNL3)
Settings: U2OS cells, 2 h, read off a plot

GNL3, endogenous, sequence (Q9BVP2 whole entry): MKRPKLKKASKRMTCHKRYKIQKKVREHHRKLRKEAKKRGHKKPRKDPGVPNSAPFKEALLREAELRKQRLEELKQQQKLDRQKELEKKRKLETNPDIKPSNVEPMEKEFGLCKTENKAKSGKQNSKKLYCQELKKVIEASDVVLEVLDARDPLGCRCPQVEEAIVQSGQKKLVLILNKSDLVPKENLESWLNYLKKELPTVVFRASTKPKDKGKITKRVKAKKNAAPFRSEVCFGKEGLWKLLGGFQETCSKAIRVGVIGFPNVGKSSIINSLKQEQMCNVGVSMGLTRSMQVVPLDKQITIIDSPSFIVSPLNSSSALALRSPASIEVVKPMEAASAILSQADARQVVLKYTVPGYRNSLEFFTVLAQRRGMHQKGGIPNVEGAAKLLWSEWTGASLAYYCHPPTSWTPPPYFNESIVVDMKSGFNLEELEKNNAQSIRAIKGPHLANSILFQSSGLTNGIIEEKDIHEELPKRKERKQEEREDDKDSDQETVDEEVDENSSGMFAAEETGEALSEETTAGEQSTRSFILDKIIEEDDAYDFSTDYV

- response (PLA dots per cell) (20 μM ETO, parent: est. 54): 28
- response (PLA dots per cell) (DMSO (control), parent: est. 16): 11
Substance: Flag-BLM, wild type (from UniProt P54132) SIMdm (both SIMs, 217QIDL220 and 235VICI238, mutated; substitutions not printed)

Source: article PMC13598120
